Measurements published in patent US20180214548A1.
One block for each substance: values may come before it.

Key:
[1] = target: human PD-1^ECD-hFc protein (Immunogen A) (human) (UniProt Q15116); test: ELISA, coated PD-1ECD-hFc; biotinylated protein 0.008 ug/mL
[2] = target: human PD-1^ECD-hFc protein (Immunogen A) (human) (UniProt Q15116); test: ELISA, coated PD-1ECD-hFc; biotinylated protein 0.04 ug/mL
[3] = target: human PD-1^ECD-hFc protein (Immunogen A) (human) (UniProt Q15116); test: ELISA, coated PD-1ECD-hFc; biotinylated protein 1 ug/mL
[4] = target: human PD-1^ECD-hFc protein (Immunogen A) (human) (UniProt Q15116); test: ELISA, coated PD-1ECD-hFc; biotinylated protein 0.0003 ug/mL
[5] = target: human PD-1^ECD-hFc protein (Immunogen A) (human) (UniProt Q15116); test: ELISA, coated PD-1ECD-hFc; biotinylated protein 0.00001 ug/mL
[6] = target: human PD-1^ECD-hFc protein (Immunogen A) (human) (UniProt Q15116); test: ELISA, coated PD-1ECD-hFc; biotinylated protein 0.0001 ug/mL
[7] = target: human PD-1^ECD-hFc protein (Immunogen A) (human) (UniProt Q15116); test: ELISA, coated PD-1ECD-hFc; biotinylated protein 0.2 ug/mL
[8] = target: human PD-1^ECD-hFc protein (Immunogen A) (human) (UniProt Q15116); test: ELISA, coated PD-1ECD-hFc; biotinylated protein 0.0016 ug/mL
[9] = target: cyno PD-1^ECD-hFc protein (cyno monkey) (UniProt B0LAJ3); test: ELISA, coated cyno PD-1ECD-hFc; antibody 0.001 nM
Chain of cyno PD-1^ECD-hFc protein (cyno monkey) (B0LAJ3 entry or part of it limits assumed): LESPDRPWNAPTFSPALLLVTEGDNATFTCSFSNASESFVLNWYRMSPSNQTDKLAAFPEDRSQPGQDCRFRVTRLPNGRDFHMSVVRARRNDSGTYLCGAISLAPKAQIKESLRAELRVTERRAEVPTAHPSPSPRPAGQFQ

[10] = target: human PD-1^ECD-hFc protein (Immunogen A) (human) (UniProt Q15116); test: ELISA, coated human PD-1ECD-hFc; antibody 0.00001 nM
[11] = target: full length human PD-1 on cells (human) (UniProt Q15116); test: flow cytometry, CHO-K1-hPD-1 cells; antibody 0.001 nM
Chain of full length human PD-1 on cells (human) (Q15116 25-288 limits assumed): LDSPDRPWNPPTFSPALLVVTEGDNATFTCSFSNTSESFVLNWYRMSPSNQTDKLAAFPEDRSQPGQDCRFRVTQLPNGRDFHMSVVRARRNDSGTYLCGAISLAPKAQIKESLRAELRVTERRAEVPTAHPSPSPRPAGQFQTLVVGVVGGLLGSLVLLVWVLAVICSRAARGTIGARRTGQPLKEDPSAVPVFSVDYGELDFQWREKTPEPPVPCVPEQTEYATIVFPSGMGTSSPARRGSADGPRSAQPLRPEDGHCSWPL

[12] = target: cyno PD-1^ECD-hFc protein (cyno monkey) (UniProt B0LAJ3); test: ELISA, coated cyno PD-1ECD-hFc; antibody 0.00001 nM
[13] = target: cyno PD-1^ECD-hFc protein (cyno monkey) (UniProt B0LAJ3); test: ELISA, coated cyno PD-1ECD-hFc; antibody 0.0001 nM
[14] = target: human PD-1, full length, on cells (human) (UniProt Q15116); test: cell-based or functional assay
Chain of human PD-1, full length, on cells (human) (Q15116 25-288): as the sequence (Q15116 25-288 limits assumed) above

[15] = target: full length human PD-1 on cells (human) (UniProt Q15116); test: flow cytometry, CHO-K1-hPD-1 cells; antibody 0.01 nM
[16] = target: full length human PD-1 on cells (human) (UniProt Q15116); test: flow cytometry, CHO-K1-hPD-1 cells; antibody 0.0001 nM
[17] = target: human PD-1^ECD-hFc protein (Immunogen A) (human) (UniProt Q15116); test: ELISA, coated protein 1 ug/mL; antibody concentration not stated
[18] = target: CTLA4 (human) (UniProt P16410); test: as above
Chain of CTLA4 (human) (P16410 37-162 limits assumed): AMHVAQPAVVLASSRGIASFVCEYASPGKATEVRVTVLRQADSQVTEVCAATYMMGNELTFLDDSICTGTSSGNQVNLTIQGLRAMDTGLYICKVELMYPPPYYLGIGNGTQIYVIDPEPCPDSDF

[19] = target: ICOS (human) (UniProt Q9Y6W8); test: as above
Chain of ICOS (human) (Q9Y6W8 21-140 limits assumed): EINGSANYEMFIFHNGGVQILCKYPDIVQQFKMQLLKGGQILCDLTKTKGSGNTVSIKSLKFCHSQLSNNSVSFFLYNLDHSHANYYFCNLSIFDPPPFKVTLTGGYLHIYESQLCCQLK

[20] = target: B7-1 (human) (UniProt P33681); test: as above
Chain of B7-1 (human) (P33681 35-242 limits assumed): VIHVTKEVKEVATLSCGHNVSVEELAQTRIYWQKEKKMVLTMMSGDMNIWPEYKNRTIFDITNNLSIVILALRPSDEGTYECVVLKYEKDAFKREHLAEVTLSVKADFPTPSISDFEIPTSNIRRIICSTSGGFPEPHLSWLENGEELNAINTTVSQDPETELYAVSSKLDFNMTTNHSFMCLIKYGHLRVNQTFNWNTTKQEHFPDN

[21] = target: CD28 (human) (UniProt P10747); test: as above
Chain of CD28 (human) (P10747 19-152 limits assumed): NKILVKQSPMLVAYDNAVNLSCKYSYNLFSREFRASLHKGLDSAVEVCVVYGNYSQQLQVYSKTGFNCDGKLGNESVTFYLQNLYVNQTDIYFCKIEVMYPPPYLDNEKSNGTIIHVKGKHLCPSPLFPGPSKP

[22] = target: full length human PD-1 on cells (human) (UniProt Q15116); test: flow cytometry, CHO-K1-hPD-1 cells; antibody 0.00001 nM
[23] = target: human PD-1^ECD-hFc protein (Immunogen A) (human) (UniProt Q15116); test: ELISA, coated human PD-1ECD-hFc; antibody 0.001 nM
[24] = target: human PD-1^ECD-hFc protein (Immunogen A) (human) (UniProt Q15116); test: ELISA, coated human PD-1ECD-hFc; antibody 0.0001 nM

Chain of human PD-1^ECD-hFc protein (Immunogen A) (human) (Q15116 25-167): as the sequence (B0LAJ3 entry or part of it limits assumed) above, with E2D, A10P, L19V, A35T, R75Q counted along it

OD450 nm [1]: 0.14 | OD450 nm [2]: 0.09 | OD450 nm [3]: 0.13 | OD450 nm [4]: 0.195 | OD450 nm [5]: 0.205 | OD450 nm [6]: 0.32 | OD450 nm [7]: 0.095 | OD450 nm [8]: 0.195
Substance: control protein (biotinylated non-PD-L1^ECD-hFc)

OD450 nm [9]: 0.106 | OD450 nm [10]: 0.287 | Mean fluorescence intensity [11]: 2.9 | OD450 nm [12]: 0.116 | OD450 nm [13]: 0.11 | IFN-γ release, mixed lymphocyte reaction (PBMC donor-2), antibody 0.01 µg/mL [14]: 353 pg/mL | IFN-γ release, mixed lymphocyte reaction (PBMC donor-2), antibody 0.1 µg/mL [14]: 281 pg/mL | IFN-γ release, mixed lymphocyte reaction (PBMC donor-2), antibody 1 µg/mL [14]: 127 pg/mL | Mean fluorescence intensity [15]: 2.9 | Mean fluorescence intensity [16]: 3.1 | OD450 nm [17]: 0.082 | OD450 nm [18]: 0.062 | OD450 nm [19]: 0.142 | OD450 nm [20]: 0.07 | OD450 nm [21]: 0.064 | Mean fluorescence intensity [22]: 2.7 | OD450 nm [23]: 0.311 | OD450 nm [24]: 0.298
Substance: IgG control (human IgG) (antibody)
